Experimental data as given in US20060052286A1, “Factor VII conjugates for selectively treating neovascularization disorders” (Yale University, priority 2004, published 2006).

B1: mfVIIPD: verteporfin conjugated via EDC to mfVIIP protein (mouse factor VII with K341A mutation) (conjugate, UniProt P70375 1-446, looked up, variant K341A)
chain: MVPQAHGLLLLCFLLQLQGPLGTAVFITQEEAHGVLHRQRRANSLLEELWPGSLERECNEEQCSFEEAREIFKSPERTKQFWIVYSDGDQCASNPCQNGGTCQDHLKSYVCFCLLDFEGRNCEKSKNEQLICANENGDCDQYCRDHVGTKRTCSCHEDYTLQPDEVSCKPKVEYPCGRIPVVEKRNSSSRQGRIVGGNVCPKGECPWQAVLKINGLLLCGAVLLDARWIVTAAHCFDNIRYWGNITVVMGEHDFSEKDGDEQVRRVTQVIMPDKYIRGKINHDIALLRLHRPVTFTDYVVPLCLPEKSFSENTLARIRFSRVSGWGQLLDRGATALELMSIEVPRLMTQDCLEHAKHSSNTPKITENMFCAGYMDGTKDACAGDSGGPHATHYHGTWYLTGVVSWGEGCAAIGHIGVYTRVSQYIDWLVRHMDSKLQVGVFRLPLL
modifications: verteporfin conjugate; S-peptide and His6 tags
B2: mfVIIP: mouse factor VII with K341A mutation, ribonuclease S-peptide and 6 Histidines, produced in CHO cells (protein, UniProt P70375 1-446, looked up, variant K341A)
chain: B1 chain
modifications: S-peptide and His6 tags
notes: mouse factor VII with K341A mutation, ribonuclease S-peptide and 6 Histidines, produced in CHO cells

Columns and labels:
[1] = test system: choroidal neovascularization (CNV) lesions; experiment: Targeted photodynamic therapy of laser-induced CNV lesions in rats (fluorescein angiography); type: in vivo, Norway-Brown rats
Experimental: CNV lesions were induced by laser photocoagulation of the retina in both eyes of Norway-Brown rats. Group 1: one eye received an intravitreal injection of 10 ul verteporfin conjugated to targeting molecule, and the other eye was used as a control. One hour later some of the lesions were treated with 690 nm laser light, while the other lesions were not irradiated. Group 2: one eye received iv. injection of 0.5 to 1 mg/m^2 verteporfin conjugated with targeting molecule. 15, 30 or 60 minutes later some of the lesions were treated with 690 nm laser light, while the other lesions were not irradiated. The lesions were examined by fluorescein angiography 1, 7 and 14 days later to assess the efficacy of targeted photodynamic therapy. In the case of intravitreal treatment with the same dosage, the effects of targeted photodynamic therapy lasted at least seven days. While there is no effect of PDT in the case of intravitreal injection of free verteporfin, the effects of targeted photodynamic therapy last even longer than 14 days, and the dosage of verteporfin in targeted photodynamic therapy is only 16% as compared to regular PDT verteporfin.
CNV lesions were induced by laser photocoagulation of the retina in both eyes of Norway-Brown rats. Choroidal neovascularization was induced by photocoagulating the posterior pole of rats with argon green laser using a slit lamp and a fundus contact lens to deliver 200-700 mW power for 0.1 second to a 50 μm spot. The power was adjusted to produce a blister or small hemorrhage. If no bleeding was observed, an additional laser-induced lesion was produced next to the first spot. Neovascular membranes usually develop within 2 weeks.
After 4 weeks, FVII-verteporfin conjugate (fVIIPD) at doses of 0.5 or 1 mg/m^2 was injected intravenously into the tail vein of the rats. Some of the CNV lesions were irradiated with 689 nm laser for 83 seconds at 15, 30 or 60 minutes after intravenous injection, while the other lesions were not irradiated (no light controls). Control rats were intravenously injected with Verteporfin (6.0 mg/m2) and laser irradiation was done 15 minutes later. The lesions were examined by fundus photographs and fluorescein angiography 1, 7 and 14 days later to assess the efficacy of ITPT. Choroidal veovascular membranes were treated by intravitreal injection of Verteporfin attached to targeting molecules that bind selectively to the endothelial cells of pathologic vessels. The photosensitizer was activated with an opal laser. A similar experiment was performed by intravitreal injection of fVII-targeted verteporfin.

[2] = molecular target: T1, Tissue Factor on the tumor cells (human breast cancer cells) (Homo sapiens, UniProt P13726); experiment: Binding to human breast cancer cells expressing TF by flow cytometry; details: conjugated compared with non-conjugated molecule
T1 construct: Human Tumor Cells Expressing TF; endogenous in cells
Experimental: mfVIIP was conjugated to verteporfin using the procedure described above. The binding activity of the conjugate to human breast cancer cells was tested by flow cytometry

T1 sequence (P13726 33-295): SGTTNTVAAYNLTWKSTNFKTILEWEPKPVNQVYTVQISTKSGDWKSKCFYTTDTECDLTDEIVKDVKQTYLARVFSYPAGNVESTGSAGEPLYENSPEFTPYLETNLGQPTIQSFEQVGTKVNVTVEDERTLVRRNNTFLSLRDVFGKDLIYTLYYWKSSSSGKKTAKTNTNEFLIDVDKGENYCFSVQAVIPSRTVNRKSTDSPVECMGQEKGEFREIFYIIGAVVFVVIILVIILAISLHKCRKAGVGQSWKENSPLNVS

Molecule	effect of PDT ([1]; intravitreal injection, same dosage)	blood vessel leakage ([1]; intravitreal injection followed by laser activation, at 7 days)	duration of effects of targeted photodynamic therapy ([1]; intravitreal treatment, 690 nm laser light)	duration of effects of targeted photodynamic therapy ([1]; route not stated in the sentence (apparently iv 0.5 to 1 mg/m^2), verteporfin dosage only 16% of regular PDT)	binding activity to human breast cancer cells [2]
verteporfin [reference compound]	no effect	–	–	–	–
B1	–	completely stopped blood vessel leakage	at least seven	> 14 days	identical
B2	–	–	–	–	identical
